Results reported in article PMC7511442.

Columns and labels:
[1] = biological target: GFP-GiKIN14a (recombinant full-length GiKIN14a with an N-terminal GFP) (Giardia intestinalis); assay: hydrodynamic analysis
[2] = biological target: GFP-GiKIN14a-Δtail (Giardia intestinalis); assay: hydrodynamic analysis
[3] = biological target: GFP-GiKIN14a-Δtail (Giardia intestinalis); assay: single-molecule photobleaching

| Substance | stoichiometry N [1] | stoichiometry N [2] | stoichiometry N [3] |
| --- | --- | --- | --- |
| GFP-GiKIN14a (recombinant full-length GiKIN14a with an N-terminal GFP) (natural protein) | 2 |  |  |
| GFP-GiKIN14a-Δtail (domain or fragment) |  | 2 | 2 |
